The results in this text go back to paper doi:10.1101/519959.

For this series, the target named is T1, DBINO domain of dIno80 (Drosophila melanogaster, UniProt Q9VDY1 228-484).
T1 sequence: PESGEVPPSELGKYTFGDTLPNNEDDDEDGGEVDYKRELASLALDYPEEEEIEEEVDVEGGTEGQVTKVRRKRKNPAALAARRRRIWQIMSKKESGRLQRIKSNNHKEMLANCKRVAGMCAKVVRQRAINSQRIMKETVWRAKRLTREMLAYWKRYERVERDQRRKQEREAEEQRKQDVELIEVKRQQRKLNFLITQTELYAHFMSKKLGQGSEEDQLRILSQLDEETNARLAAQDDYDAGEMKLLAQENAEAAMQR
Put plainly: fluorescent intercalator displacement.

B1: Hs.con (3 copies of Ino80 motif, 33-mer) (dsDNA)
DNA 1: CCCCGTCAGCCCCCCGTCAGCCCCCCGTCAGCC
DNA 2: GGCTGACGGGGGGCTGACGGGGGGCTGACGGGG
On to B1, for which the affinity, expressed as Kd, was 10 µM.
